Test results taken from IntAct's records for PubMed 21262861.

biological target: sox6_human SOX6 (UniProt P35712)
Sequence (P35712 whole entry): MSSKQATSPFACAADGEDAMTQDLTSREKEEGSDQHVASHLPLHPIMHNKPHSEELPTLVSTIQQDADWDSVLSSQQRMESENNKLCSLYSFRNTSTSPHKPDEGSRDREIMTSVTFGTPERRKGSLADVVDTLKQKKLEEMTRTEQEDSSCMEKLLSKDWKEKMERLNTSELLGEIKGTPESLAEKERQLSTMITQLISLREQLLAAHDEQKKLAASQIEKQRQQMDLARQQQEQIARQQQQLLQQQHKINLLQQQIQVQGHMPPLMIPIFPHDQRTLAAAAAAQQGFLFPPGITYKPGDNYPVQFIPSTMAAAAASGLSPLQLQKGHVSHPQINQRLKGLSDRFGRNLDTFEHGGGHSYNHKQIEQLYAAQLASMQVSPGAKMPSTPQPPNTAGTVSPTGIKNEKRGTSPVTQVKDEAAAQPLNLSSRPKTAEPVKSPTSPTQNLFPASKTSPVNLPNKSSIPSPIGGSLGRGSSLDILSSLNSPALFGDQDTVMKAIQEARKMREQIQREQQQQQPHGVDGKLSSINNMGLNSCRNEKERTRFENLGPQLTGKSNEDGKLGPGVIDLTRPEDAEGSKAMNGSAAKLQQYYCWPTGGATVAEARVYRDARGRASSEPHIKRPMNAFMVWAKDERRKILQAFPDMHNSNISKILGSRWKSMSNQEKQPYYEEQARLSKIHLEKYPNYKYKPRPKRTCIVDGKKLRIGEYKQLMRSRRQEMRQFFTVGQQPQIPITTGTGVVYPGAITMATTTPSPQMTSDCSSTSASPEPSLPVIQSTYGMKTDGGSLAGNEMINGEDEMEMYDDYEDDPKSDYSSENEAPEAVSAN

Sequence of Short stature homeobox protein (Homo sapiens), O15266 L132V (O15266 whole entry L132V): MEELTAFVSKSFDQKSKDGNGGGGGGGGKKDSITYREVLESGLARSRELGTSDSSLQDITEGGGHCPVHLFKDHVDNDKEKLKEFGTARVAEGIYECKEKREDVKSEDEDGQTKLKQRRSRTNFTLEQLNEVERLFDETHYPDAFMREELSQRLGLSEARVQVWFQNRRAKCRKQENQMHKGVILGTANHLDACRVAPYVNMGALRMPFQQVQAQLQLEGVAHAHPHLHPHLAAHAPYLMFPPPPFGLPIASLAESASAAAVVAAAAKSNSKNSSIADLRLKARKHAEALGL
Sequence of Short stature homeobox protein (Homo sapiens), O15266 A170P (O15266 whole entry A170P): as the sequence (O15266 whole entry L132V) above, with V132L, A170P counted along it
Sequence of Short stature homeobox protein (Homo sapiens), O15266 D278A (O15266 whole entry D278A): as the sequence (O15266 whole entry L132V) above, with V132L, D278A counted along it
Sequence of Short stature homeobox protein (Homo sapiens), O15266 R173C (O15266 whole entry R173C): as the sequence (O15266 whole entry L132V) above, with V132L, R173C counted along it
Sequence of Short stature homeobox protein (Homo sapiens), O15266 R195P (O15266 whole entry R195P): as the sequence (O15266 whole entry L132V) above, with V132L, R195P counted along it
Sequence of Short stature homeobox protein (Homo sapiens), O15266 R168Y (O15266 whole entry R168Y): as the sequence (O15266 whole entry L132V) above, with V132L, R168Y counted along it
Sequence of Short stature homeobox protein (Homo sapiens), O15266 A233E (O15266 whole entry A233E): as the sequence (O15266 whole entry L132V) above, with V132L, A233E counted along it
Sequence of Short stature homeobox protein (Homo sapiens), O15266 K116E (O15266 whole entry K116E): as the sequence (O15266 whole entry L132V) above, with K116E, V132L counted along it

Substance	effect of a mutation on the interaction
Short stature homeobox protein (Homo sapiens), O15266 A170P	disrupting interaction
Short stature homeobox protein (Homo sapiens), O15266 A233E	decreasing interaction
Short stature homeobox protein (Homo sapiens), O15266 D278A	decreasing interaction
Short stature homeobox protein (Homo sapiens), O15266 K116E	decreasing interaction
Short stature homeobox protein (Homo sapiens), O15266 L132V	disrupting interaction
Short stature homeobox protein (Homo sapiens), O15266 R168Y	decreasing interaction
Short stature homeobox protein (Homo sapiens), O15266 R173C	decreasing interaction
Short stature homeobox protein (Homo sapiens), O15266 R195P	decreasing interaction
